Assay results published in patent US20110262448A1 (Bristol-Myers Squibb, published 2011).
Residue numbers refer to the chain shown, from its start. Each block holds one binder with its values, some of them ahead of it.

Legend:
[1] = molecular target: T1, hu mesothelin-his fusion protein (human, UniProt Q13421 296-598, limits assumed); assay: BIAcore SPR, antibody captured on protein G chip, mesothelin His-fusion protein injected
T1 construct: domain: 40 kD portion of mesothelin; Soluble fusion protein secreted by transfected CHO cells; also called recombinant soluble mesothelin his-fusion protein; recombinant human mesothelin His-fusion protein; not shown: His tag at the C-terminus
Description: The binding of the 3C10, 6A4 and 7B1 antibodies to recombinant soluble mesothelin his-fusion protein was examined by BIAcore™ using a capture method. The 3C10, 6A4 and 7B1 antibodies each were separately captured on a protein G (Pierce, Rockford, Ill.) coated CM5 chip at high density (4000 RUs). The coating was performed based on the standard immobilization procedure recommended by the manufacturer. After the 3C10, 6A4 or 7B1 purified antibody was captured on protein G, a concentration series of recombinant human mesothelin His-fusion protein (450, 225, 112.5, 56, and 28 nM) was injected over the captured antibody for 2 minutes at a flow rate of […]. The antigen was allowed to dissociate for 8 minutes. Isotype controls were run on the chip, and the data used to subtract non-specific binding. All the analyses were carried out on a Biacore 2000 or 3000 surface plasmon resonance instrument, using BIAcore Control software v 4.01. Data was analyzed using BiaEvaluation v4.01 software.

[2] = molecular target: T2, cell-surface human mesothelin (naturally expressed on OVCAR3, NCI-H226, CFPAC-1 and KB cells and on human … (human, UniProt Q13421 296-598)); assay: flow cytometry on OVCAR3 cells
T2 construct: whole, on cells; Endogenously expressed on the cell lines; also called cell surface mesothelin
Description: (§1) To test the ability of the antibodies to bind to cell surface mesothelin protein, the antibodies were incubated with four different mesothelin-expressing cells: OVCAR3 (ATCC Designation HTB-161, a human ovarian cancer cell line), NCI-H226 (ATCC Designation CRL-5826, a human lung-derived mesothelioma), CFPAC-1 (ATCC Designation CRL-1918, a human pancreatic cancer cell line), and KB (ATCC Designation CCL-17, a human oral carcinoma cell line). For the flow cytometry studies, the 3C10, 6A4 and 7B1 monoclonal antibodies were diluted with cold 1×PBS+0.1% BSA to 40 μg/mL. For the binding reaction, 50 μl of diluted antibody solution was added to a 50 μl cell suspension containing 4×10⁵ cells and the mixture was incubated on ice for 30-60 minutes. The cells were then washed three times with 1×PBS+0.1% BSA. A 1:50 dilution of R-phycoerythrin-labeled goat anti-human IgG Fγ F(ab)₂ fragment (Jackson ImmunoResearch Labs, Cat. #109-116-098) was added and the mixture was incubated on ice for 1 hour, followed by washing twice with cold 1×PBS+0.1% BSA. After the final wash, 200 μl of cold 1×PBS+0.1% BSA was added to each solution and analysis of antibody binding was carried out by FACS.

[3] = molecular target: T2, cell-surface human mesothelin …; assay: flow cytometry on NCI-H226 cells
Description: as §1

[4] = molecular target: T2, cell-surface human mesothelin …; assay: flow cytometry on CFPAC-1 cells
Description: as §1

[5] = molecular target: T2, cell-surface human mesothelin …; assay: flow cytometry on KB cells
Description: as §1

[6] = molecular target: mesothelin on CHO-mesothelin cells (CHO cells transfected to express the 40 kD membrane-associated portion of … (UniProt Q13421 296-598, limits assumed)); assay: cell-based or functional assay
Sequence of mesothelin on CHO-mesothelin cells (CHO cells transfected to express the 40 kD membrane-associated portion of … (Q13421 other isoform, or with tags, fused parts or gaps limits assumed): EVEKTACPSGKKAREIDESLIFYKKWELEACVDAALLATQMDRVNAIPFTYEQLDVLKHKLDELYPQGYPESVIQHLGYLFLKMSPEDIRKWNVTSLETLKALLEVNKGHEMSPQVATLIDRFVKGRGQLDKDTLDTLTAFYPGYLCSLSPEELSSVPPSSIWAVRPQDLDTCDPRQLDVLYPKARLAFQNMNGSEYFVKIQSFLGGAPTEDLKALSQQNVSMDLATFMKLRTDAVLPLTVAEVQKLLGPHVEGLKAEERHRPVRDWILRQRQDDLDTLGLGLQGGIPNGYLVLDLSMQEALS

T1 sequence (Q13421 other isoform, or with tags, fused parts or gaps limits assumed): as above
T2 sequence (Q13421 other isoform, or with tags, fused parts or gaps limits assumed): as above

Kd [1]: 5800 pM
koff [1]: 0.000362 s⁻¹
kon [1]: 63000 M⁻¹ s⁻¹
EC50 [2]: 213 pM
EC50 [3]: 197 pM
EC50 [4]: 193 pM
EC50 [5]: 144 pM
B1: human monoclonal antibody 3C10 (antibody, IgG1, V domains shown)
VH: QVYLVESGGGVVQPGRSLRLSCAASGITFSIYGMHWVRQAPGKGLEWVAVIWYDGSHEYYADSVKGRFTISRDNSKNTLYLLMNSLRAEDTAVYYCARDGDYYDSGSPLDYWGQGTLVTVSS
VL: EIVLTQSPATLSLSPGERATLSCRASQSVSSYLAWYQQKPGQAPRLLIYDASNRATGIPARFSGSGSGTDFTLTISSLEPEDFAVYYCQQRSNWPLTFGGGTKVEIK
notes: hybridoma-derived purified antibody; also called 3C10 mAb; 1382.210.3C10.1.6

Kd [1]: 5900 pM
koff [1]: 0.000377 s⁻¹
kon [1]: 63900 M⁻¹ s⁻¹
EC50 [2]: 170 pM
EC50 [3]: 156 pM
EC50 [4]: 193 pM
EC50 [5]: 182 pM
B2: human monoclonal antibody 6A4 (antibody, IgG1, V domains shown)
VH: B1 VH with Y3H, A23V, S30R, I51L, L82Q, V93I
VL: B1 VL
notes: also called 6A4 mAb; 1382.210.6A4.1.6
Antibody Dependent Cellular Cytotoxicity, EC50 (nM), CHO-mesothelin target cells [6]: 63.1 nM

Kd [1]: 2400 pM
koff [1]: 0.000171 s⁻¹
kon [1]: 71500 M⁻¹ s⁻¹
EC50 [2]: 110 pM
EC50 [3]: 664 pM
EC50 [4]: 64.3 pM
EC50 [5]: 67.9 pM
B3: human monoclonal antibody 7B1 (antibody, V domains shown)
VH: EVHLVESGGGLVQPGGSLRLSCAASGFTFSRYWMSWVRQAQGKGLEWVASIKQAGSEKTYVDSVKGRFTISRDNAKNSLSLQMNSLRAEDTAVYYCAREGAYYYDSASYYPYYYYYSMDVWGQGTTVTVSS
VL: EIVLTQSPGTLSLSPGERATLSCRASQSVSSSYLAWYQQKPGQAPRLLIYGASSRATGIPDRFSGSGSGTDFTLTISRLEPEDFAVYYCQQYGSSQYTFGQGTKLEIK
notes: also called 7B1 mAb; 1382.210.7B1.2.18
